The values below come from US20210322404A1, “FGFR REGULATION FOR THE TREATMENT OF VIRAL INFECTIONS” (ETH ZURICH, priority 2016, published 2021).

The test system of experiment [1] is interferon-stimulated response element (ISRE). The experiment in a line: ISRE luciferase reporter assay in immortalized mouse keratinocytes. The experiment is classed as cell-based. The settings on record: FGF7 10 ng/ml and/or IFNα 1000 U/ml, 12 h. On the procedure:
FIG. 3C pertains to immortalized mouse keratinocytes that were co-transfected with TK-Renilla and pGL4.45[luc2P/ISRE/Hygro] plasmids, starved in serum-free medium and then treated with FGF7 (10 ng/ml) and/or IFNα (1000 U/ml) for 12 h. Firefly luciferase activity was determined in cell lysates and normalized to Renilla luciferase activity (transfection control). The mean value in vehicle-treated cells (CTRL) was set to 1.
Mouse keratinocytes and HEK 293 cells were transfected with the expression vector for TK-Renilla and the expression vector pGL4.45[luc2P/ISRE/Hygro] (Promega). The latter contains five copies of an ISRE that drives expression of the luciferase reporter gene. Cells were seeded into 12-well plates, cultured for 24 h, and transfected using Lipofectamine 2000 […]. They were then starved in serum-free medium, treated with FGF7 (10 ng/ml) and/or IFNα (1000 U/ml) for 12 h, lysed and analyzed using a dual-luciferase assay system (Promega) as described by the manufacturer. Relative light units were measured in a GloMax 96 microplate luminometer with dual injectors (Promega).

The subject of experiment [2] is interferon-stimulated genes (ISGs). Nature of the experiment: ISG expression in mouse keratinocytes treated with FGF7 and/or IFNα (qRT-PCR). The experiment is classed as cell-based. In general terms: Quantitative PCR measures a nucleic acid by following its amplification.
Experiment [3] can be described thus: Active RAC1 detection after FGF7 treatment. The experiment is classed as cell-based, human. The settings on record: HaCaT cells, FGF7 10 ng/ml, 10 min. On the procedure: FIG. 4D pertains to mouse primary keratinocytes (left panel) or HaCaT cells (right panel), which had been treated with FGF7 (10 ng/ml) or vehicle for 10 min and analyzed for active RAC1 using the Active RAC1 detection kit (Cell Signaling). Activation of FGFR signaling under these conditions was verified by phosphorylation of ERK1/2 (p42/44).

The subject of another experiment is ISGs. The settings on record: cultured lung airway epithelial cells, Prince et al.; cited from earlier work.
A further experiment concerns ZIKV. The experiment in a line: ZIKV infection of HaCaT cells. It is filed as cell-based, Zika Virus. On the procedure: FIGS. 6B and C relate to HaCaT cells that were serum starved overnight and then infected with the ZIKV strains Uganda (strain 976) (MOI=0.1) or French-Polynesia (PF13/251013-18) (MOI˜20). 2h after infection cells were treated with 20 ng/ml FGF7 or left untreated (CTRL). Culture medium+/−FGF7 was changed every day. 48h post infection cells were analyzed by immunofluorescence using a Flavivirus group-specific antibody (4G2) detecting the ZIKV envelope protein (ZIKV-Env) (B). Magnification bar in (B): 40 μm. Alternatively, cells were analyzed for ZIKV mRNA levels by qRT-PCR relative to RPL27 (C). Mean expression levels in vehicle-treated cells were set to 1. Representative out of four independent experiments are shown.
HaCaT cells were seeded on a 4-well tissue chamber on a PCA slide (5×10^4/chamber). After overnight serum starvation, they were infected with the ZIKV strains Uganda (strain 976) (MOI=0.1) or French-Polynesia (PF13/251013-18) (MOI˜20). 2h post infection cells were treated with FGF7 or left untreated. Culture media+/−FGF7 was changed every day. 48 hours post-infection cells were either analyzed by immunofluorescence using a Flavivirus group-specific antibody (4G2) detecting the ZIKV envelope protein (ZIKV-Env) or harvested and analyzed for ZIKV expression levels by qRT-PCR relative to human RPL27 (ZIKV primers: 5′-[…] -3′, SEQ ID NO: 49; 5′-[…] -3′, SEQ ID NO: 50). To investigate the effect of ZIKV and FGF7 on ISG expression, HaCaT cells were seeded in 6-well plates. After overnight serum starvation, confluent cells were infected with the ZIKV strain French-Polynesia (PF13/251013-18) (MOI˜20) in the presence or absence of FGF7 (20 ng/ml). 72 h post-infection cells were harvested and analyzed for OAS1 and MxA by qRT-PCR relative to RPL27.

Experiment [4] concerns interferon-stimulated genes (ISGs). Nature of the experiment: ISG expression in human keratinocytes (HaCaT, primary foreskin) treated with FGF7, FGF10 and/or IFNα (qRT-PCR). The experiment is classed as cell-based. The settings on record: human primary foreskin keratinocytes and HaCaT, FGF7 10 ng/ml and IFNα 500 U/ml, 16 h. How it is done:
FIG. 2F relates to serum-starved immortalized human keratinocytes (HaCaT cell line) that were treated for 6 h with FGF7, FGF10 (both 10 ng/ml) or vehicle (CTRL). RNA was analyzed by qRT-PCR for the expression of the indicated ISGs relative to RPLP0. Mean expression levels in CTRL cells were set to 1. Representative data from three experiments are shown. Scatter plot and mean values are shown in (A-D). Each dot represents a biological replicate.
FIGS. 3E and F pertain to confluent human primary foreskin keratinocytes and (E) or HaCaT cells (F) that were serum-starved for 24 h and treated with FGF7 (10 ng/ml) and/or IFNα (500 U/ml) for 16 h. Cells were analyzed for ISG mRNA levels by qRT-PCR relative to RPLP0. Mean expression levels in vehicle-treated (CTRL) cells were set to 1.
The human HaCaT keratinocyte cell line was cultured in DMEM (Sigma) supplemented with 10% FCS (Thermo Fisher). […]
Total RNA from isolated epidermis of mice or from total skin was purified with Trizol, followed by additional purification with the RNeasy Mini Kit, including on-column DNase treatment (Qiagen, Hilden, Germany). […] Relative gene expression was determined using the Roche LightCycler 480 SYBR Green system (Roche, Rotkreuz, Switzerland).

B1: FGF7: recombinant human FGF7, the classical ligand of FGFR2b (protein, UniProt P21781 32-194, looked up)
Fibroblast growth factor 7: CNDMTPEQMATNVNCSSPERHTRSYDYMEGGDIRVRRLFCRTQWYLRIDKRGKVKGTQEMKNNYNIMEIRTVAVGIVAIKGVESEFYLAMNKEGKLYAKKECNEDCNFKELILENHYNTYASAKWTHNGGEMFVALNQKGIPVRGKKTKKEQKTAHFLPMAIT
For B1, the ISRE-driven luciferase activity entry in experiment [1] is given as “counteracted”. Further, in experiment [2] (mouse keratinocytes, FGF7 10 ng/ml), the “expression of Ifnα subtypes, Ifnβ and Il28a (Ifnλ2)” value is listed as “not reduced”. Further, the “increase in ISG expression in response to IFNα” value is on record as “reduced” in experiment [2] (mouse primary keratinocytes, FGF7 10 ng/ml and IFNα 1000 U/ml, 6 h); “reduced” in experiment [4]. In addition, in experiment [2] (primary and immortalized keratinocytes from wild-type mice, FGF7 10 ng/ml, 3 or 6 h), the “ISG expression (qRT-PCR relative to Rps29)” value is reported as “strongly suppressed”. Besides, the “expression of ISGs in IFNAR-deficient cells” value in experiment [2] (primary keratinocytes from Ifnar KO mice, FGF7 6 h) was “still suppressed expression of ISGs”. For the same molecule, in experiment [3], the “active RAC1” value is “activated RAC1”. In the experiment on ISGs, the “expression of ISGs” value is recorded as “suppresses the expression of a limited number of ISGs”. Also, in the experiment with ZIKV (FGF7 20 ng/ml added 2 h after infection), the “ZIKV gene expression (qRT-PCR relative to RPL27)” value was “efficient when added 2 h after the infection”. In addition, the “number of cells expressing the ZIKV envelope protein” value in the experiment on ZIKV (FGF7 20 ng/ml, 48 h post infection) is given as “increased the number of cells expressing the ZIKV envelope protein”. In addition, the “increase of MxA and OAS1 expression during ZIKV infection” value with ZIKV (ZIKV French-Polynesia, FGF7 20 ng/ml, 72 h) was “strongly suppressed”.
